This passage reports Kd results from patent publication US20230272114A1.

Assay in all cases: Biacore SPR
In one assay the target is human FcγRI (human) (UniProt P12314).
The target in assay [1] is human H131 FcγRIIa (human) (UniProt P12318).
The target of assay [2] is human V158 FcγRIIIa (human) (UniProt P08637).
Assay [3] addresses recombinant human FcγRIIb protein (R&D Systems) (human) (UniProt P31994).

human FcγRI (human), sequence (P12314 16-288): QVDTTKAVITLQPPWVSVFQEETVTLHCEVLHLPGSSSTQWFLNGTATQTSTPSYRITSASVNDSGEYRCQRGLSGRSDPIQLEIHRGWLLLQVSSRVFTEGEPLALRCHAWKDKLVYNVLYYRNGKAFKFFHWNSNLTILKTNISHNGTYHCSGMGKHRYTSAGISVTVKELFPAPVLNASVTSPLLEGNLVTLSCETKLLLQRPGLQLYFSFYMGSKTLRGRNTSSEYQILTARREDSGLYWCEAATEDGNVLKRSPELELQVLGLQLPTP
recombinant human FcγRIIb protein (R&D Systems) (human), sequence (P31994 46-217): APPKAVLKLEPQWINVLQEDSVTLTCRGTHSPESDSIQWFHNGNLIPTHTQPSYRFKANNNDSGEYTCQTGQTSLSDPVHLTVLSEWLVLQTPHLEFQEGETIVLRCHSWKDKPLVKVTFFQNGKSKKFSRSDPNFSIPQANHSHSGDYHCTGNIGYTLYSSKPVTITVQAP

Consider “anti-CD19 antibody HuAM4G7 IgG1 Fc variant S239D/S267E”, for which the Kd with human FcγRI (human) stood at 0.17 nM; in assay [1] it was 700 nM; in assay [2], 62 nM; in assay [3], 12 nM.
